Biological target: SARS-CoV prefusion stabilised spike ectodomain trimer (SARS-CoV Urbani, stabilised)
Experiment: cryo-EM structure

B1: 47D11 Fab fragment (Fab, V domains shown)
VH: QVQLQESGPGLVKPSETLSLTCSVSGGSISSHYWSWIRQPPGKGLEWIGYIYYSGSTNHNPSLKSRVTISVDTSKNQFSLKLSSVTAADTAVYYCARGVLLWFGEPIFEIWGQGTMVTVSS
VL: EIVMTQSPATLSVSPGERATLSCRASQSVSSSLAWYQQKPGQAPRLLIYGASTRAPGIPARFSGSGSGTEFTLTISSLQSEDFAVYYCQQYNNWPLTFGGGTKVEI
stoichiometry N: 3 Fab per spike trimer

From paper doi:10.1101/2020.09.30.318261 (bioRxiv, 2020)
